Results taken from paper PMC2761280.
Where two headings read alike, the source gives them in different places.

T1: POLGβ (his)10 (UniProt Q9UHN1 26-485)
T1 sequence: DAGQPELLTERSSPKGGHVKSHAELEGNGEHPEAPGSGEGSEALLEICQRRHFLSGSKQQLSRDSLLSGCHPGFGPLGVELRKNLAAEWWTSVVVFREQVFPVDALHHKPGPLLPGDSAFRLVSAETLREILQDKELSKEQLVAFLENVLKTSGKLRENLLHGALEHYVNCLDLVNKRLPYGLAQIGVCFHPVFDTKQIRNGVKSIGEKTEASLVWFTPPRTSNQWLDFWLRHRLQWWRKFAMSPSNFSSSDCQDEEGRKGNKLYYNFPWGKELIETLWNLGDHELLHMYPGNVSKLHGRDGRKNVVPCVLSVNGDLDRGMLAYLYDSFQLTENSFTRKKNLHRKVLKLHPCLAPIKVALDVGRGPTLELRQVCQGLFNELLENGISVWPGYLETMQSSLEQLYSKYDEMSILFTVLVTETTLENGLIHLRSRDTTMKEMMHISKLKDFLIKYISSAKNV

B1: oligonucleotide C (free ss oligo) (ssDNA)
DNA: ACCGCTATGTATTTCGTACATTACTGCCAGCCACCATGAATATTGTACGGTACCATAAATACTTGACCACCTGTAGTACATAAAAACCCAATCCACATCAAAACCCCCTCCCCATGCTTA

Assays:
Assay in all cases: EMSA
POLGβ (his)10 [1] = biological target: T1, POLGβ (his)10
POLGα [2] = biological target: T2, POLGα (UniProt P54098 26-1239)
T2 sequence (P54098 26-1239): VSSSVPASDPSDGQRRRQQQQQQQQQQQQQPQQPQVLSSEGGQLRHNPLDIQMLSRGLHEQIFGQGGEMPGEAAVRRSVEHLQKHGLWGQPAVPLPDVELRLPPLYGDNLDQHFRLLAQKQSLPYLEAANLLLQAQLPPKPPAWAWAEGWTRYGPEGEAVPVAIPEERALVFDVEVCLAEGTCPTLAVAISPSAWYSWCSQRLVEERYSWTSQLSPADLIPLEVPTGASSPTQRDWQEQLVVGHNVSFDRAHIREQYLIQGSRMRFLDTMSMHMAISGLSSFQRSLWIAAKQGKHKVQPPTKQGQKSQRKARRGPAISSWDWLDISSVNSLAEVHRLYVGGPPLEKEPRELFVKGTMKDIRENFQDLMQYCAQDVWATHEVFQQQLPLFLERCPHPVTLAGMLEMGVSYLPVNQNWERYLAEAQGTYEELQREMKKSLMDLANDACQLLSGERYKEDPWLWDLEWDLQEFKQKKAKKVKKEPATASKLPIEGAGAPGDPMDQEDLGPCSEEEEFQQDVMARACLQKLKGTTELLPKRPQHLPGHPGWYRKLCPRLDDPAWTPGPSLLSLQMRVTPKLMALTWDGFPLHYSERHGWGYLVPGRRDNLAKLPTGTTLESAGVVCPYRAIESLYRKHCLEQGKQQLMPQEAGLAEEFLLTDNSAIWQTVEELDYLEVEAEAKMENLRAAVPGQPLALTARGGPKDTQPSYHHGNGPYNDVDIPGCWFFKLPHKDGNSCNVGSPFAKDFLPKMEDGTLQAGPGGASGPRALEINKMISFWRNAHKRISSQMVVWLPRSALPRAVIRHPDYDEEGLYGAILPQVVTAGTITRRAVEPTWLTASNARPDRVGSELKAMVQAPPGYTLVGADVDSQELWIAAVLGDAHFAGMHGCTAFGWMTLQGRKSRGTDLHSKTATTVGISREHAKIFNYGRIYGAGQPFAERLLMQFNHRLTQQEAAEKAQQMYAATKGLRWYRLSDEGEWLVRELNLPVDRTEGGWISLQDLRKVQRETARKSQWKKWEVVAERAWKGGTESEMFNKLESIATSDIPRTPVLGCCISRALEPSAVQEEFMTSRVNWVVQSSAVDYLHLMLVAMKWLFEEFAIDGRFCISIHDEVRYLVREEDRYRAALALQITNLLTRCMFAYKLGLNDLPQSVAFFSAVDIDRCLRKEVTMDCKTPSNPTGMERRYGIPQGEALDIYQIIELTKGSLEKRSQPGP

POLGα [3] = biological target: T2, POLGα; remark: listed apart in the source
POLGβ (his)10 [4] = biological target: T1, POLGβ (his)10; remark: listed apart in the source

Binder	binding result (POLGβ (his)10 [1])	Kd (POLGα [2]) [nM]	binding result (POLGα [3])	binding result (POLGβ (his)10 [4])
CCGGTCGTACGGAAAACCTGTATTTTCAGGGCT (ssDNA) [33-mer ss oligonucleotide]	no binding	92	–	–
B1	–	–	binds	no binding
